Laboratory results published in article PMC6168263 (The Journal of Cell Biology, 2018).

B1: MBP-Hof1 F-BAR (1-275) (domain or fragment, S. cerevisiae, UniProt Q05080 1-275, looked up)
chain: MSYSYEACFWDPNDNGVNILLGHISQGIRSCDSMILFFKQRSELEKDYARRLGAITGKLDKDIGTNMDYGKLNETFNVVLSVEKARAQSHSKQSEILFRQIYTDTKAFAANLQARYTTLSGKIERLRMDKFNKKKGCEVLQKKLQDAQIRFRDLQLNENNMIGAKRVEHNKRELLKWESNSQEYKVQLDVLKQEYKASQKFWIHEWAQLSCELQEMENARISFLQSKLQQFATSSMETYILEQTKMDMLTNHLNSFTAADEISTFSKENGTGRLK
B2: C-Bud6 (550-788) (domain or fragment, S. cerevisiae, UniProt P41697 550-788, looked up)
chain: AKNSSNRMYMEKSQTELGDLSDTLLSKVDDLQDVIEIMRKDVAERRSQPAKKKLETVSKDLENAQADVLKLQEFIDTEKPHWKKTWEAELDKVCEEQQFLTLQEELILDLKEDLGKALETFDLIKLCCEEQEKNPSRSKSNPILPIMRPGTFNQVREQVMVAVQSLNPDHDSRVEAIDKAEKMWEMERKLKASNEFDDELENFVGNSNLKKSGGFEEVERIRKQKDEANLRAYFGPGFT
B3: MBP-Hof1-NT-SNAP-549 (domain or fragment, S. cerevisiae, UniProt Q05080 1-340, looked up)
chain: MSYSYEACFWDPNDNGVNILLGHISQGIRSCDSMILFFKQRSELEKDYARRLGAITGKLDKDIGTNMDYGKLNETFNVVLSVEKARAQSHSKQSEILFRQIYTDTKAFAANLQARYTTLSGKIERLRMDKFNKKKGCEVLQKKLQDAQIRFRDLQLNENNMIGAKRVEHNKRELLKWESNSQEYKVQLDVLKQEYKASQKFWIHEWAQLSCELQEMENARISFLQSKLQQFATSSMETYILEQTKMDMLTNHLNSFTAADEISTFSKENGTGRLKHKTSKGDMNSSANWAQMSSISTTSKKTESYMDNIRKLSSQLKETENKRKLASIDKYEKPLPSPEV
modifications: BG-549 SNAP dye on the SNAP tag
B4: 6His-Bnr1 FH2 (868-1,291) (domain or fragment, S. cerevisiae, UniProt P40450 868-1291, looked up)
chain: DLKPPPTEKRLKQIHWDKVEDIKDTLWEDTFQRQETIKELQTDGIFSQIEDIFKMKSPTKIANKRNAESSIALSSNNGKSSNELKKISFLSRDLAQQFGINLHMFSQLSDMEFVMKVLNCDNDIVQNVNILKFFCKEELVNIPKSMLNKYEPYSQGKDGKAVSDLQRADRIFLELCINLRFYWNARSKSLLTLSTYERDYYDLIFKLQKIDDAISHLNRSPKFKSLMFIITEIGNHMNKRIVKGIKLKSLTKLAFVRSSIDQNVSFLHFIEKVIRIKYPDIYGFVDDLKNIEDLGKISLEHVESECHEFHKKIEDLVTQFQVGKLSKEENLDPRDQIIKKVKFKINRAKTKSELLIGQCKLTLIDLNKLMKYYGEDPKDKESKNEFFQPFIEFLAMFKKCAKENIEKEEMERVYEQRKSLLDMR
B5: MBP-Hof1-FL-6His (natural protein, S. cerevisiae, UniProt Q05080 1-669, looked up)
chain: MSYSYEACFWDPNDNGVNILLGHISQGIRSCDSMILFFKQRSELEKDYARRLGAITGKLDKDIGTNMDYGKLNETFNVVLSVEKARAQSHSKQSEILFRQIYTDTKAFAANLQARYTTLSGKIERLRMDKFNKKKGCEVLQKKLQDAQIRFRDLQLNENNMIGAKRVEHNKRELLKWESNSQEYKVQLDVLKQEYKASQKFWIHEWAQLSCELQEMENARISFLQSKLQQFATSSMETYILEQTKMDMLTNHLNSFTAADEISTFSKENGTGRLKHKTSKGDMNSSANWAQMSSISTTSKKTESYMDNIRKLSSQLKETENKRKLASIDKYEKPLPSPEVTMATQFRNSTPVIRNETKVVANPTLSLRSSPVQLQSNVDDSVLRQKPDKPRPIVGEEQLKPDEDSKNPDEKGLMVHKRNQSLSSPSESSSSNPTDFSHIKKRQSMESMTTSVSSMANSIDDSQRFAKSWNSSNRKRKSMSHLQVPSSASSRSDDGGRTPNSAHNLNEDDYNTRRDTSTSTILFKPPVAVRGTSRGHTHRQSMIMQDSSNPIEDALYEMERIQSSSKPGTKTGNIMDERGVVRDRGITVTLPIVTSEGFPVIEYAKAMYPLIGNEAPGLANFHKGDYLLITEIVNKDWYKGEVYDNDRIDRNHRIGLIPYNFIQLLHQGL

Legend:
[1] = molecular target: B4; assay: negative-stain single-particle EM
[2] = molecular target: 649-biotin-SNAP-C-Bnr1 (S. cerevisiae, UniProt P40450 757-1375, BG-649-PEG-Biotin on the SNAP tag); assay: TIRF microscopy of labelled protein on formin-coated beads
[3] = molecular target: the molecule itself; assay: negative-stain single-particle EM
[4] = molecular target: 6His-Bnr1 FH1-FH2-C (residues 757-1,375) (S. cerevisiae, UniProt P40450 757-1375); assay: negative-stain single-particle EM
Sequence of 6His-Bnr1 FH1-FH2-C (residues 757-1,375) (P40450 757-1375): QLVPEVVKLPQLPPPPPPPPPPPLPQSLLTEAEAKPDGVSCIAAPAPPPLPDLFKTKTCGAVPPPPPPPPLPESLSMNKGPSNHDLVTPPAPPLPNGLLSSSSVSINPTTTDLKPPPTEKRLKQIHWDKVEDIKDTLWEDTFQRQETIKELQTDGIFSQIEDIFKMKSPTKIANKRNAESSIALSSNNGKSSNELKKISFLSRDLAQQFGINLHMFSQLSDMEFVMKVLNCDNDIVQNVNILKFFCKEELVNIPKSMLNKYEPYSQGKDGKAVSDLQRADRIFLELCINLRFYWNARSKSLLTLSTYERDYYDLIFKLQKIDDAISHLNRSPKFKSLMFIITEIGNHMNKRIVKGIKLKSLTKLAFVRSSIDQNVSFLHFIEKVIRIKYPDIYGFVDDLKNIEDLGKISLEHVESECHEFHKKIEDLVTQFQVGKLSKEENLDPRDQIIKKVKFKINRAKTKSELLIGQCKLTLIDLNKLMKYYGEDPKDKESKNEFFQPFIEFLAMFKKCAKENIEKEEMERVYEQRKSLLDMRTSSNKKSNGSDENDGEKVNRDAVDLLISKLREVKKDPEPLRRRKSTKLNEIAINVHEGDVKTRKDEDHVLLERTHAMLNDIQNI

Sequence of 649-biotin-SNAP-C-Bnr1 (P40450 757-1375): as above

B1
stoichiometry N [1]: 2 Bnr1 FH2 domains per Hof1 F-BAR domain

B2
binding result [2]: binds

B3
binding result [2]: binds

B4
stoichiometry N [3]: 2

B5
stoichiometry N [4]: 2 C-Bnr1 dimers per Hof1-FL dimer
